Experimental data published in US20090098106A1 (YEDA RESEARCH AND DEVELOPMENT, published 2009).

B2: HC8 (α7) subunit of the human 20S proteasome (other, UniProt P25788 1-255, looked up)
chain: MSSIGTGYDLSASTFSPDGRVFQVEYAMKAVENSSTAIGIRCKDGVVFGVEKLVLSKLYEEGSNKRLFNVDRHVGMAVAGLLADARSLADIAREEASNFRSNFGYNIPLKHLADRVAMYVHAYTLYSAVRPFGCSFMLGSYSVNDGAQLYMIDPSGVSYGYWGCAIGKARQAAKTEIEKLQMKEMTCRDIVKEVAKIIYIVHDEVKDKAFELELSWVGELTNGRHEIVPKDIREEAEKYAKESLKEEDESDDDNM
notes: Yeast two-hybrid: prey from a human bone marrow library, re-cloned into pGADT7; Co-immunoprecipitation: N-terminal HIS tag and/or C-terminal myc tag (pCDNA3); also called human C8

Columns and labels:
[1] = molecular target: B2; assay: co-immunoprecipitation from HeLa cells with anti-NIK monoclonal antibody, Western blot
[2] = molecular target: T1, NF-κB inducing kinase (NIK), human, full length (human, UniProt Q99558 1-947); assay: yeast two-hybrid, β-gal colour, strain SFY526 (bait NIK, prey HC8)
T1 construct: Yeast two-hybrid: cloned into pGBKT7 as bait (fusion partner not spelled out); Co-immunoprecipitation: N-terminal 6 myc tag (pCS3MTNIK) in 293T cells, or His tag in HeLa cells; also called intact NIK; wild type NIK
From the text: (§1) Yeast 2 Hybrid Screening Assays: NIK or its deletions were cloned into pGBKT7 vector as bait and the preys were re-cloned into pGADT7 vector for assay in the yeast strain SFY526. The system used for screening was the Matchmaker version III (clontech). The prey was pretransformed human bone marrow library (cat# HY4053AH) pooled from 51 males/females in the age range 22-70. It belongs to a new generation of 2 hybrid libraries that offers high stringent quadruple drop out (QDO) selection along with α-gal assay. Clones growing on plates without LEU, TRP, HIS and ADE were reconfirmed by α-gal assay. Plasmids of the positive clones were prepared by lysis of the yeast cells with detergent and mechanical stress followed by phenol extraction and ethanol precipitation of the DNA. Encoded inserts from the plasmids were amplified by PCR with the primers specific for the library vector pACT2.
(§2) A yeast 2 hybrid screening was effected using intact NIK cDNA (GenBank Accession No. Y10256; SEQ ID NO: 5), NIK-C-terminus (amino acids 624-947 of SEQ ID NO: 5) or NIK-N terminus (amino acids 1-367) as a prey. The most prevalent prey which was found in these screenings was the α7 subunit (HC8) (GenBank Accession No. XM_{—}050947). […]

[3] = molecular target: T2, NIK-C-terminus (amino acids 624-947 of SEQ ID NO: 5) (human, UniProt Q99558 624-947); assay: yeast two-hybrid, β-gal colour, strain SFY526 (bait NIK-C-ter, prey HC8)
T2 construct: Yeast two-hybrid bait in pGBKT7 (fusion partner not spelled out)
T2 sequence (Q99558 624-947): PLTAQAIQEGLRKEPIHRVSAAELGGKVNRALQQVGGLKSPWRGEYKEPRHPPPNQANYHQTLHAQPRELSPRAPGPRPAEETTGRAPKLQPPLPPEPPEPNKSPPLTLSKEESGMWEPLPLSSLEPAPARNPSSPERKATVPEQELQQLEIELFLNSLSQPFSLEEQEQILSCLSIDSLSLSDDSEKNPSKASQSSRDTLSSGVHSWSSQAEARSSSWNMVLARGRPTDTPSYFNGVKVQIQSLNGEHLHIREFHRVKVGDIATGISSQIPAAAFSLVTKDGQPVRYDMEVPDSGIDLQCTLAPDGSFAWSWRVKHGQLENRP
From the text: as §1, §2

TRAF2 = molecular target: T3, TRAF2 (UniProt Q12933 1-501, limits assumed); assay: yeast two-hybrid, β-gal colour, strain SFY526
T3 sequence (looked up): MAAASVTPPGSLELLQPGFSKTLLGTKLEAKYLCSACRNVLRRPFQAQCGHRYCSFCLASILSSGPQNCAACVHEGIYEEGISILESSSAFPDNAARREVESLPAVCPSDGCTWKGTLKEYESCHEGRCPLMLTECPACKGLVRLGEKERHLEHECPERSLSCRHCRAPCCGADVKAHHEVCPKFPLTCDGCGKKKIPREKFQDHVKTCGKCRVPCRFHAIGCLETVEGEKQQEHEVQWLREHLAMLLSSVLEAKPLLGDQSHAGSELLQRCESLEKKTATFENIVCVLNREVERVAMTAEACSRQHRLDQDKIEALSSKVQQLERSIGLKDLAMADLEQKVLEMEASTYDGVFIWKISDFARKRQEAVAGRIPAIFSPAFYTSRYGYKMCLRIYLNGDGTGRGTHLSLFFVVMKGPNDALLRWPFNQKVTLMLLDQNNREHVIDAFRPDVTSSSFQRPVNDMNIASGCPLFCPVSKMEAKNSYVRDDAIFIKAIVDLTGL

[4] = molecular target: B2; assay: yeast two-hybrid, β-gal colour, strain SFY526 (bait NIK-N-ter, prey HC8)
From the text: as §1, §2

B1: NIK kinase domain (kinase motif, amino acids 400-650) (other)
chain: ATHQLRLGRGSFGEVHRMEDKQTGFQCAVKKVRLEVFRAEELMACAGLTSPRIVPLYGAVREGPWVNIFMELLEGGSLGQLVKEQGCLPEDRALYYLGQALEGLEYLHSRRILHGDVKADNVLLSSDGSHAALCDFGHAVCLQPDGLGKSLLTGDYIPGTETHMAPEVVLGRSCDAKVDVWSSCCMMLHMLNGCHPWTQFFRGPLCLKIASEPPPVREIPPSCAPLTAQAIQEGLRKEPIHRVSAAELGGK
notes: also called kinase motif of NIK
B1: no binding [1].

B2: binds [2]; binds [3].

B3: NIK-N terminus (amino acids 1-367) (other)
chain: MAVMEMACPGAPGSAVGQQKELPKPKEKTPPLGKKQSSVYKLEAVEKSPVFCGKWEILNDVITKGTAKEGSEAGPAAISIIAQAECENSQEFSPTFSERIFIAGSKQYSQSESLDQIPNNVAHATEGKMARVCWKGKRRSKARKKRKKKSSKSLAHAGVALAKPLPRTPEQESCTIPVQEDESPLGAPYVRNTPQFTKPLKEPGLGQLCFKQLGEGLRPALPRSELHKLISPLQCLNHVWKLHHPQDGGPLPLPTHPFPYSRLPHPFPFHPLQPWKPHPLESFLGKLACVDSQKPLPDPHLSKLACVDSPKPLPGPHLEPSCLSRGAHEKFSVEEYLVHALQGSVSSSQAHSLTSLAKTWAARGSRS
notes: Yeast two-hybrid bait in pGBKT7
B3: no binding (TRAF2); binds [4].
